Experimental data published in the supplement of paper PMC7877785.
± gives the uncertainty stated by the source.

Test: self-splicing fitness, log relative to wild type (ln ratio); higher = more splicing; Tetrahymena group I intron in knt gene, E. coli kanamycin selection, DiMSum; sequences stand for … in CUCUCU…GGAGGGAAAAGUUAUCAGGCAUGCACCUGGUAGCUAGUCUUUAAACCAAUAGAUUGCAUCGGUUUAAAAGGCAAGACCGUCAAAUUGCGGGAAAGGGGUCAACAGCCGUUCAGUACCAAGUCUCAGGGGAAACUUUGAGAUGGCCUUGCAAAGGGUAUGGUAAUAAGCUGACGGACAUGGUCCUAACCACGCAGCCAAGUCCUAAGUCAACAGAUCUUCUGUUGAUAUGGAUGCAGUUCACAGACUAAAUGUCGGUCGGGGAAGAUGUAUUCUUCUCAUAAGAUAUAGUCGGACCUCUCCUUAAUGGGAGCUAGCGGAUGAAGUGAUGCAACACUGGAGCCGCUGGGAACUAAUUUGUAUGCGAAAGUAUAUUGAUUAGUUUUGGAGUACUCGUGGUCG
In short: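 A randomised library covering all eight P1ex-region intron nucleotides was built with the intron in the knt kanamycin-resistance gene on pET-22b(+) and held in E. coli BL21(DE3). Cells were grown overnight at 37°C or 30°C on LB agar, with or without 25 μg/mL kanamycin, plus 100 μg/mL carbenicillin, 50 μM IPTG and 0.2% rhamnose, and pooled colonies were amplicon-sequenced on an Illumina HiSeq 2500. DiMSum fitness is the error-weighted combination of wild-type-normalised replicate fold changes, kanamycin versus none.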

| Sequence | self-splicing fitness (ln) (30 °C) | self-splicing fitness (ln) (37 °C) |
| --- | --- | --- |
| AAGCAGCAAUAUUACGUAGA | -2.7 ± 0.097 | -1.42 ± 0.082 |
| AAGCAGCAAUAUUACGUCAC | -4.94 ± 0.42 | -2.25 ± 0.3 |
| AAGCAGCAAUAUUACGUCAU | -3.1 ± 0.14 | -1.76 ± 0.14 |
| AAGCAGCAAUAUUACGUCUC | -1.28 ± 0.065 | -0.717 ± 0.077 |
| AAGCAGCAAUAUUACGUGUA | -1.83 ± 0.081 | -0.134 ± 0.077 |
| AAGCAGCAAUAUUACGUUUC | -3.3 ± 0.16 | -2.27 ± 0.31 |
| AAGGAGCAAUAUUACGAAAU | -2.26 ± 0.14 | -3 ± 0.29 |
| AAGGAGCAAUAUUACGAGCU | – | -0.204 ± 0.24 |
| AAGGAGCAAUAUUACGAGGG | -2.76 ± 0.24 | -2.93 ± 0.3 |
| AAGGAGCAAUAUUACGAUGA | -3.04 ± 0.24 | -2.02 ± 0.2 |
| AAGGAGCAAUAUUACGAUGU | -2.12 ± 0.14 | -2.28 ± 0.23 |
| AAGGAGCAAUAUUACGCACG | -1.84 ± 0.43 | -0.01 ± 0.45 |
| AAGGAGCAAUAUUACGCAUC | -5.17 ± 0.36 | -2.52 ± 0.19 |
| AAGGAGCAAUAUUACGCCGG | -3.01 ± 0.4 | -2.6 ± 0.36 |
| AAGGAGCAAUAUUACGCGCA | -1.82 ± 0.18 | -0.97 ± 0.2 |
| AAGGAGCAAUAUUACGCUAC | -2.75 ± 0.43 | – |
| AAGGAGCAAUAUUACGCUGC | -3.07 ± 0.38 | -2.68 ± 0.26 |
| AAGGAGCAAUAUUACGCUUG | -1.86 ± 0.1 | -0.799 ± 0.13 |
| AAGGAGCAAUAUUACGGAAA | – | -0.83 ± 0.24 |
| AAGGAGCAAUAUUACGGGGU | -3.61 ± 0.18 | -2.31 ± 0.15 |

| Sequence | self-splicing fitness (ln) (30 °C) | self-splicing fitness (ln) (37 °C) |
| --- | --- | --- |
| AAGGAGCAAUAUUACGGUAC | -3.2 ± 0.47 | -2.19 ± 0.4 |
| AAGGAGCAAUAUUACGUAAC | -3.28 ± 0.25 | -2.96 ± 0.43 |
| AAGGAGCAAUAUUACGUACA | -2.75 ± 0.33 | -2.11 ± 0.21 |
| AAGGAGCAAUAUUACGUACU | -0.884 ± 0.11 | -0.189 ± 0.11 |
| AAGGAGCAAUAUUACGUAGC | – | -2.18 ± 0.42 |
| AAGGAGCAAUAUUACGUGCA | -3.03 ± 0.18 | -1.37 ± 0.17 |
| AAGGAGCAAUAUUACGUGCC | -3.03 ± 0.37 | -0.905 ± 0.39 |
| AAGGAGCAAUAUUACGUUUA | -2.95 ± 0.24 | -1.66 ± 0.16 |
| AAGUAGCAAUAUUACGAACG | -1.86 ± 0.11 | -1.17 ± 0.13 |
| AAGUAGCAAUAUUACGAAUU | -1.94 ± 0.12 | -0.748 ± 0.15 |
| AAGUAGCAAUAUUACGACCU | 0.0875 ± 0.13 | -0.703 ± 0.17 |
| AAGUAGCAAUAUUACGAUGC | -2.76 ± 0.16 | -0.209 ± 0.15 |
| AAGUAGCAAUAUUACGAUGG | -3.03 ± 0.2 | -2.75 ± 0.33 |
| AAGUAGCAAUAUUACGCUCU | -1.25 ± 0.18 | -1.29 ± 0.17 |
| AAGUAGCAAUAUUACGGCAU | -0.18 ± 0.094 | 0.382 ± 0.12 |
| AAGUAGCAAUAUUACGUCCC | -0.0634 ± 0.3 | -0.156 ± 0.24 |
| AAGUAGCAAUAUUACGUGCA | -0.781 ± 0.074 | -0.196 ± 0.098 |
| AAUAAGCAAUAUUACGAACA | -0.812 ± 0.15 | -0.462 ± 0.15 |
| AAUAAGCAAUAUUACGAACG | -1.5 ± 0.12 | -0.285 ± 0.17 |
